Data from US20170298096A1 (CANIMGUIDE THERAPEUTICS, published 2017).
No end group written: not given here.

T1: His-tagged P3028 (human, not fully specified)
T1 construct: the tag is put first after 'PGE73=His-tag-P3028'; also called PGE73; not shown: His-tag
T1 peptide: {His‑tag}-VFDEFKPLVEEPQNLIK


Target: T1, His-tagged P3028
Assay: chip ELISA

Question: How did the ELISA signal turn out when KFLDTFFVKLSLFTER [P28R K2F] was run?
Answer: 390

Question: Which ELISA signal does the source give for KHLDTFFVKLSLFTER [P28R K2H] here?
Answer: 394

Question: For KILDTFFVKLSLFTER [P28R K2I], which ELISA signal is on record?
Answer: 331

Question: With KLLDTFFVKLSLFTER [P28R K2L] as the binder, how does the ELISA signal read?
Answer: 343

Question: Which ELISA signal does the source give for KMLDTFFVKLSLFTER [P28R K2M] here?
Answer: 400

Question: Which ELISA signal does the source give for KNLDTFFVKLSLFTER [P28R K2N] here?
Answer: 432

Question: For KQLDTFFVKLSLFTER [P28R K2Q], which ELISA signal is on record?
Answer: 350

Question: For KRLDTFFVKLSLFTER [P28R K2R], which ELISA signal is on record?
Answer: 417

Question: How did the ELISA signal turn out when KSLDTFFVKLSLFTER [P28R K2S] was run?
Answer: 281

Question: Which ELISA signal does the source give for KTLDTFFVKLSLFTER [P28R K2T] here?
Answer: 331

Question: How did the ELISA signal turn out when KVLDTFFVKLSLFTER [P28R K2V] was run?
Answer: 317

Question: KWLDTFFVKLSLFTER [P28R K2W] was tested. Which ELISA signal did it give?
Answer: 304

Question: With KYLDTFFVKLSLFTER [P28R K2Y] as the binder, how does the ELISA signal read?
Answer: 301

Question: Which ELISA signal does the source give for KKLDTFFVALSLFTER [P28R K9A] here?
Answer: 191

Question: How did the ELISA signal turn out when KKLDTFFVDLSLFTER [P28R K9D] was run?
Answer: 149

Question: How did the ELISA signal turn out when KKLDTFFVELSLFTER [P28R K9E] was run?
Answer: 240

Question: Which ELISA signal does the source give for KKLDTFFVFLSLFTER [P28R K9F] here?
Answer: 174

Question: KKLDTFFVHLSLFTER [P28R K9H] was tested. Which ELISA signal did it give?
Answer: 306

Question: KKLDTFFVILSLFTER [P28R K9I] was tested. Which ELISA signal did it give?
Answer: 190

Question: Which ELISA signal does the source give for KKLDTFFVLLSLFTER [P28R K9L] here?
Answer: 166

Question: KKLDTFFVMLSLFTER [P28R K9M] was tested. Which ELISA signal did it give?
Answer: 283

Question: With KKLDTFFVNLSLFTER [P28R K9N] as the binder, how does the ELISA signal read?
Answer: 256

Question: Which ELISA signal does the source give for KKLDTFFVQLSLFTER [P28R K9Q] here?
Answer: 330

Question: How did the ELISA signal turn out when KKLDTFFVRLSLFTER [P28R K9R] was run?
Answer: 374

Question: Which ELISA signal does the source give for KKLDTFFVSLSLFTER [P28R K9S] here?
Answer: 274

Question: For KKLDTFFVTLSLFTER [P28R K9T], which ELISA signal is on record?
Answer: 347

Question: KKLDTFFVVLSLFTER [P28R K9V] was tested. Which ELISA signal did it give?
Answer: 248

Question: For KKLDTFFVWLSLFTER [P28R K9W], which ELISA signal is on record?
Answer: 245

Question: For KKLDTFFVYLSLFTER [P28R K9Y], which ELISA signal is on record?
Answer: 198

Question: How did the ELISA signal turn out when KKADTFFVKLSLFTER [P28R L3A] was run?
Answer: 427

Question: How did the ELISA signal turn out when KKDDTFFVKLSLFTER [P28R L3D] was run?
Answer: 492

Question: KKEDTFFVKLSLFTER [P28R L3E] was tested. Which ELISA signal did it give?
Answer: 528

Question: How did the ELISA signal turn out when KKFDTFFVKLSLFTER [P28R L3F] was run?
Answer: 393

Question: How did the ELISA signal turn out when KKHDTFFVKLSLFTER [P28R L3H] was run?
Answer: 477

Question: With KKIDTFFVKLSLFTER [P28R L3I] as the binder, how does the ELISA signal read?
Answer: 454

Question: KKKDTFFVKLSLFTER [P28R L3K] was tested. Which ELISA signal did it give?
Answer: 386

Question: KKMDTFFVKLSLFTER [P28R L3M] was tested. Which ELISA signal did it give?
Answer: 460

Question: For KKNDTFFVKLSLFTER [P28R L3N], which ELISA signal is on record?
Answer: 374

Question: For KKQDTFFVKLSLFTER [P28R L3Q], which ELISA signal is on record?
Answer: 473

Question: For KKRDTFFVKLSLFTER [P28R L3R], which ELISA signal is on record?
Answer: 370

Question: Which ELISA signal does the source give for KKSDTFFVKLSLFTER [P28R L3S] here?
Answer: 393

Question: KKTDTFFVKLSLFTER [P28R L3T] was tested. Which ELISA signal did it give?
Answer: 451

Question: Which ELISA signal does the source give for KKVDTFFVKLSLFTER [P28R L3V] here?
Answer: 377

Question: For KKWDTFFVKLSLFTER [P28R L3W], which ELISA signal is on record?
Answer: 341

Question: KKYDTFFVKLSLFTER [P28R L3Y] was tested. Which ELISA signal did it give?
Answer: 344

Question: For KKLDTFFVKASLFTER [P28R L10A], which ELISA signal is on record?
Answer: 426

Question: With KKLDTFFVKDSLFTER [P28R L10D] as the binder, how does the ELISA signal read?
Answer: 102

Question: For KKLDTFFVKESLFTER [P28R L10E], which ELISA signal is on record?
Answer: 81

Question: How did the ELISA signal turn out when KKLDTFFVKFSLFTER [P28R L10F] was run?
Answer: 403

Question: KKLDTFFVKHSLFTER [P28R L10H] was tested. Which ELISA signal did it give?
Answer: 293

Question: How did the ELISA signal turn out when KKLDTFFVKISLFTER [P28R L10I] was run?
Answer: 415

Question: Which ELISA signal does the source give for KKLDTFFVKKSLFTER [P28R L10K] here?
Answer: 285

Question: For KKLDTFFVKMSLFTER [P28R L10M], which ELISA signal is on record?
Answer: 460

Question: With KKLDTFFVKNSLFTER [P28R L10N] as the binder, how does the ELISA signal read?
Answer: 365

Question: How did the ELISA signal turn out when KKLDTFFVKQSLFTER [P28R L10Q] was run?
Answer: 470

Question: For KKLDTFFVKRSLFTER [P28R L10R], which ELISA signal is on record?
Answer: 439

Question: How did the ELISA signal turn out when KKLDTFFVKSSLFTER [P28R L10S] was run?
Answer: 351

Question: KKLDTFFVKTSLFTER [P28R L10T] was tested. Which ELISA signal did it give?
Answer: 399

Question: For KKLDTFFVKVSLFTER [P28R L10V], which ELISA signal is on record?
Answer: 658

Question: With KKLDTFFVKWSLFTER [P28R L10W] as the binder, how does the ELISA signal read?
Answer: 316

Question: With KKLDTFFVKYSLFTER [P28R L10Y] as the binder, how does the ELISA signal read?
Answer: 382

Question: For KKLDTFFVKLSAFTER [P28R L12A], which ELISA signal is on record?
Answer: 462

Question: With KKLDTFFVKLSDFTER [P28R L12D] as the binder, how does the ELISA signal read?
Answer: 89

Question: How did the ELISA signal turn out when KKLDTFFVKLSEFTER [P28R L12E] was run?
Answer: 82

Question: How did the ELISA signal turn out when KKLDTFFVKLSFFTER [P28R L12F] was run?
Answer: 389

Question: KKLDTFFVKLSHFTER [P28R L12H] was tested. Which ELISA signal did it give?
Answer: 460

Question: How did the ELISA signal turn out when KKLDTFFVKLSIFTER [P28R L12I] was run?
Answer: 456

Question: For KKLDTFFVKLSKFTER [P28R L12K], which ELISA signal is on record?
Answer: 355

Question: Which ELISA signal does the source give for KKLDTFFVKLSMFTER [P28R L12M] here?
Answer: 499

Question: For KKLDTFFVKLSNFTER [P28R L12N], which ELISA signal is on record?
Answer: 462

Question: For KKLDTFFVKLSQFTER [P28R L12Q], which ELISA signal is on record?
Answer: 651
